Results on four molecules are retold here after US20230321261A1 (published 2023).

Assay [1] addresses T1, Mus musculus AXL (p33-HAMm-AXL) (human (Homo sapiens) AXL with mouse …, UniProt Q00993 1-888 (mouse entry)).
T1 construct: also called hsAXL-mmECD
T1 chain: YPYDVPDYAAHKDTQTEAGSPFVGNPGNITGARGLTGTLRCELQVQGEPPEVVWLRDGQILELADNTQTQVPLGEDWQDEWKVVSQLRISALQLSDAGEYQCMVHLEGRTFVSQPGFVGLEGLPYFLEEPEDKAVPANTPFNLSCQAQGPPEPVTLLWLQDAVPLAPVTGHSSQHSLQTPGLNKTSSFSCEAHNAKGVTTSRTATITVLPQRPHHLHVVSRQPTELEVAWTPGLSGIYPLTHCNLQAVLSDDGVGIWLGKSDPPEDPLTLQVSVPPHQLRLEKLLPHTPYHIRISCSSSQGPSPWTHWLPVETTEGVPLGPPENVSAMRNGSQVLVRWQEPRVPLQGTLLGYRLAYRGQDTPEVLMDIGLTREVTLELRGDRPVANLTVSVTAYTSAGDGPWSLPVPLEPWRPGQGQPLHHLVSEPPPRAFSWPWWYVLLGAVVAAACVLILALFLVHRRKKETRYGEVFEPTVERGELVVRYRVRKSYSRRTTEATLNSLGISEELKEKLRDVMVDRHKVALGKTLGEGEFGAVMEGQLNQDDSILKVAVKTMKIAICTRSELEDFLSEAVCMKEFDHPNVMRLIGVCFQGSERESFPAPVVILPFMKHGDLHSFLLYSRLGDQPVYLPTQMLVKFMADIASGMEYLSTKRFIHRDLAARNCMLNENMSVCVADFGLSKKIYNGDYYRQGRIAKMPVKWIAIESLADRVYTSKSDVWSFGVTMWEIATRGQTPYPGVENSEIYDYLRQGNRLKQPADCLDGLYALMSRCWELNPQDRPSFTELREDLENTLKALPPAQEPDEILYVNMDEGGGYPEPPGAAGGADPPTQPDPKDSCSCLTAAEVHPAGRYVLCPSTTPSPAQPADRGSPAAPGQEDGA
Briefly: flow cytometry, transfected HEK293F cells.

The target in assay [2] is T2, Homo sapiens AXL - Mus musculus FN2 domain (p33-AXL-mFN2) (human (Homo sapiens) AXL with mouse …, UniProt P30530 26-894).
T2 construct: also called hsAXL-mmFN2
T2 chain: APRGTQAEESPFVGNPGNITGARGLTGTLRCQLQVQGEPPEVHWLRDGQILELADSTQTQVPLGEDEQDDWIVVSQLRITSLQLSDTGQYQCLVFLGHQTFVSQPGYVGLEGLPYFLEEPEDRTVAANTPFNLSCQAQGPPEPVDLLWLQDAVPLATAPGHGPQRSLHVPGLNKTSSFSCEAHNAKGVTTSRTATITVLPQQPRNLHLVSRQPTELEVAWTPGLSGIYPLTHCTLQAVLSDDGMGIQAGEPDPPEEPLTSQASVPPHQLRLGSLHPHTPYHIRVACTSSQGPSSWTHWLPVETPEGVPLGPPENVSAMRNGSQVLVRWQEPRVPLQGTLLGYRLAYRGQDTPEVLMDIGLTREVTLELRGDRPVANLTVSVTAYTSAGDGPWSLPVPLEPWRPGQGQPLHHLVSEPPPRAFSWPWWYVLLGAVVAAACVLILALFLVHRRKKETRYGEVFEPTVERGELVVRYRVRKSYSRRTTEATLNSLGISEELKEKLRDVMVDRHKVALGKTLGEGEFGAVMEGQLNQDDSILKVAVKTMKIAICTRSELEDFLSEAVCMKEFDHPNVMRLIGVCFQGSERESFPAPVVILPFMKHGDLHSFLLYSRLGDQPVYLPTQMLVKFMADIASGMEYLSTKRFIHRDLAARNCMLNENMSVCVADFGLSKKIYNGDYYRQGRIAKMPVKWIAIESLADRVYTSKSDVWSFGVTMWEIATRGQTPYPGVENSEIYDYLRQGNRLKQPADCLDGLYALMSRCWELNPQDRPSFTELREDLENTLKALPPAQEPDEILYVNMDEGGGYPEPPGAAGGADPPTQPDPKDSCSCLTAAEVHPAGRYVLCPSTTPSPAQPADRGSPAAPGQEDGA
In words: flow cytometry, transfected HEK293F cells.

B1: IgG1-AXL-061 (antibody, V domains shown)
VH: QVQLVQSGAEVKKPGASVKVSCKASGYAFTGYGISWVRQAPGQGLEWIGWISAYNGNTNYVQNLQDRVTMTTDTSTSTAYMELRSLRSDDTAVYYCARDHISMLRGIIIRNYWGQGTLVTVSS
VL: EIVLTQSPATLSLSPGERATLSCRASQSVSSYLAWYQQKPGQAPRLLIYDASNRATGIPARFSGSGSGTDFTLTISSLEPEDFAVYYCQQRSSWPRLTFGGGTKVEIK
notes: expressed as IgG1,κ
Take B1: the binding result in assay [1] is “no binding (tested: 1 µg/mL)”.

B2: IgG1-AXL-137 (antibody, V domains shown)
VH: QVQLVQSGAEVKKPGSSVKVSCKASGGTFSRYAISWVRQAPGQGLEWMGRIIPIVGIANYAQKFQGRVTLTADKSTSTAYMELSSLRSEDTAVYYCAREAGYSSSWYAEYFQHWGQGTLVTVSS
VL: not shown
notes: expressed as IgG1,κ
For B2, in assay [1], the binding result is reported as “no binding (tested: 1 µg/mL)”.

B3: IgG1-AXL-613 (antibody, V domains shown)
VH: QVQLVQSGAEVKKPGSSVKVSCKASGGTFSSYAINWMRQAPGQGLEWMGRIIPIFGIVNYAQKFQGRVTLTADKSTSTAYMELSSLRSEDTAVYYCARRGNYYGSGSPDVFDIWGQGTMVTVSS
VL: not shown
notes: expressed as IgG1,κ
On to B3, for which the binding result in assay [1] is given as “no binding (tested: 1 µg/mL)”.

B4: IgG1-AXL-726 (antibody, V domains shown)
VH: QVQLQQWGAGLLKPSETLSLTCAIDGGSFSGYYWSWIRQPPGKGLEWIGEISHSGRTNYNPSLKSRVTISIDTSKNQFSLKLSSVAAADTAVYYCARFITMIRGAIITHFDYWGQGALVTVSS
VL: DIQMTQSPSSLSASVGDRVTITCRASQGISSWLAWYQQKPEKAPKSLIYAASSLQSGVPSRFSGSGSGTDFTLTISSLQPEDFATYYCQQYHSYPYTFGQGTKLEIK
notes: expressed as IgG1,κ
With B4, the binding result in assay [2] was “no binding (tested: 1 µg/mL)”.
